Experimental findings from article PMC9088798, “An Approach to Derive Functional Peptide Inhibitors of Transcription Factor Activity” (JACS Au, 2022) are described below.

Assay [1] concerns the target cJun bZIP domain (UniProt P05412).
The target is the same in assay [2]. Put plainly: circular dichroism thermal denaturation; loss of CD signal at 222 nm with temperature; total peptide 10 μM, equimolar components.
The target is the same in assay [3]. The source holds these as a separate data set.
For assay [4] the target is unchanged. The source holds these as a separate data set.
For assay [5] the target is unchanged. In words: ITC; antagonist peptide injected into cJun; single-site binding model.
For assay [6] the target is unchanged. Put plainly: circular dichroism spectra; CD spectra at 20 °C; heterodimeric sample compared with the average of the component spectra; total peptide 10 μM, equimolar components. A general note: Circular dichroism is the unequal absorption of left and right circularly polarised light.

Sequence of cJun bZIP domain (P05412 252-315): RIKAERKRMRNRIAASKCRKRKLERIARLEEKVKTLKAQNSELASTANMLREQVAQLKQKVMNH

Take FosW (designed binder): in assay [1], the IC50 of reversal of the TRE DNA CD peak shift at ~281 nm; blocks cJun binding to TRE DNA was found to be 120 µM. Further, in assay [2], the Tm of the heterodimer was found to be 54 °C.
What is called Kd is a measure of binding affinity in units of concentration. One may read the stoichiometry N as a count of units in the complex or per binding partner. Take A-FosW (designed binder): the TBS assay in E. coli: colony numbers relative to TRE-mDHFR only (removal of the cJun transcriptional block) in assay [3] was found to be 60%. Further, the IC50 of reversal of the TRE DNA CD peak shift at ~281 nm (cJun 20 μM, TRE DNA 5 μM); blocks cJun binding to TRE DNA in assay [1] is 16 µM. In assay [4], this substance displayed an IC50 of restoration of the free TRE DNA band in EMSA (cJun bZIP 20 μM, TRE DNA 2 μM); blocks cJun binding to TRE DNA of 12.1 µM. In assay [5], this substance registered a dissociation constant (Kd) of 0.0883 µM, a dH of -36.5 kcal/mol and a stoichiometry N of 1.04. For the same substance, in assay [2], the Tm of the heterodimer is 69.9 °C and the ΔTm of the heterodimer against the average of the component denaturation profiles is 27.5 °C. In assay [6], this substance yielded an increase in α-helical content over the average of the component spectra of 39%.
